Measurements reported in patent publication US20030228607A1, “Screening method and modulators having an improved therapeutic profile” (priority 2002, published 2003).

Target: T1, GAL4-human silencing mediator of retinoid and thyroid transcription (SMRT) receptor interacting domain 1 and … (yeast; human)
T1 construct: also called GAL4-SMRT ID1+ID2
T1 chain: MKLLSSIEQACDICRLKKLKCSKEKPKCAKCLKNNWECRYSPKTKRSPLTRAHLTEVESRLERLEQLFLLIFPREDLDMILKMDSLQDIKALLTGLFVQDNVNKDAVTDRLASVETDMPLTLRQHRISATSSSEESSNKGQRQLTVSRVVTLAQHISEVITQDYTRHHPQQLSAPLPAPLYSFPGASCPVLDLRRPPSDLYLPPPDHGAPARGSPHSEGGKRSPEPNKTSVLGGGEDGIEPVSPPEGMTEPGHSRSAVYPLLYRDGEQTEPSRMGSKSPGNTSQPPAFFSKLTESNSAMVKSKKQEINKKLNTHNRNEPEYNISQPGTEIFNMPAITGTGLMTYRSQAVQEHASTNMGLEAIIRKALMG
Test: mammalian GAL4/VP16 two-hybrid, CV-1 cells, luciferase reporter

| Binder | binding result |
| --- | --- |
| VP16-LXR-LBD (VP16 activation domain fused to the ligand binding domain of human LXRα, amino acids 164-447) (receptor, also called VP16 fusion of LXRα; VP16-LXRα-LBD) SRGRTRNNYGSTIEGLLDLPDDDDAPAEAGLVAPRMSFLSAGQRPRRLSTTAPITDVSLVDELRLDGEEVDMTPADALDDFDLEMLGDVESPSPGMTHDPVSYGALDVDDFEFEQMFTDALGIDDFGGREECVLSEEQIRLKKLKRQEEEQAHATSLPPRRSSPPQILPQLSPEQLGMIEKLVAAQQQCNRRSFSDRLRVTPWPMAPDPHSREARQQRFAHFTELAIVSVQEIVDFAKQLPGFLQLSREDQIALLKTSAIEVMLLETSRRYNPGSESITFLKDFSYNREDFAKAGLQVEFINPIFEFSRAMNELQLNDAEFALLIAISIFSADRPNVQDQLQVERLQHTYVEALHAYVSIHHPHDRLMFPRMLMKLVSLRTLSSVHSEQVFALRLQDKKLPPLLSEIWDVHE | binds |
| VP16-LXR-LBD (VP16 activation domain fused to the ligand binding domain of human LXRβ, amino acids 155-461) (receptor, also called VP16 fusion of LXRβ; VP16-LXRβ-LBD) SRGRTRNNYGSTIEGLLDLPDDDDAPAEAGLVAPRMSFLSAGQRPRRLSTTAPITDVSLVDELRLDGEEVDMTPADALDDFDLEMLGDVESPSPGMTHDPVSYGALDVDDFEFEQMFTDALGIDDFGGREQCVLSEEQIRKKKIRKQQQESQSQSQSPVGPQGSSSSASGPGASPGGSEAGSQGSGEGEGVQLTAAQELMIQQLVAAQLQCNKRSFSDQPKVTPWPLGADPQSRDARQQRFAHFTELAIISVQEIVDFAKQVPGFLQLGREDQIALLKASTIEIMLLETARRYNHETECITFLKDFTYSKDDFHRAGLQVEFINPIFEFSRAMRRLGLDDAEYALLIAINIFSADRPNVQEPGRVEALQQPYVEALLSYTRIKRPQDQLRFPRMLMKLVSLRTLSSVHSEQVFALRLQDKKLPPLLSEIWDVHE | binds |
